Experiment: label from the status in PepcDB records

Q: Which protein production does the source give for “MLGLLRRLFDNNEREIARYYKQVVEPVNRLEAEVEKLPDLAAAYRELKEKHEKGASLDELLPMAFALTRESAKRYLGMRHFDVQLIGGAVLHEGKIAEMKTGEGKTLVATLAVALNALTGKGVHVVTVNDYLARRDAEWMGPVYRGLGLSVGVIQHASTPAERRKAYLADVTYVTNSELGFDYLRDNMAISPDQLVLRHDHPLHYAIIDEVDSILIDEARTPLIISGPAEKATDLYYKMAEIAKKLERGLPAEPGVRKEPTGDYTVEEKNRSVHLTLQGIAKAEKLLGIEGLFSPENMELAHMLIQAIRAKELYHRDRDYIVQDGQVIIVDEFTGRLMPGRRYGEGLHQAIEAKEGVRIERENQTLATITYQNFFRLYEKRAGMTGTAKTEEKEFQEIYGMDVVVVPTNRPVIRKDFPDVVYRTEKGKFYAVVEEIAEKYERGQPVLVGTISIEKSERLSQMLKEPRLYLPRLEMRLELFKKASQKQQGPEWERLRKLLERPAQLKDEDLAPFEGLIPPKGNLRTAWEGLKRAVHTLAVLRQGIPHQVLNAKHHAREAEIVAQAGRSKTVTIATNMAGRGTDIKLGGNPEYLAAALLEKEGFDRYEWKVELFIKKMVAGKEEEARALAQELGIREELLERIREIREECKQDEERVRALGGLFIIGTERHESRRIDNQLRGRAGRQGDPGGSRFYVSFDDDLMRLFASDRVIAMLDRMGFDDSEPIEHPMVTRSIERAQKRVEDRNFAIRKQLLQFDDVLSRQREVIYAQRRLILLGKDEEVKEAAIGMVEETVASLAENFLNPEVHPEDWDLEGLKATLLDTAPQLQDFPFAELRALKAEEAVERLVEAALKAYEAREAELSPPLMRAVERFVILNVVDNAWKEHLHNLDVLRQGIFLRGYGQKDPFQEYKIEATRLFNEMVAFIKSEVAKFLFRLKVEAEPVRPVREAPYVPVPEAKPEPSEVFGVERKRATPPPQPGLSRAERRRLMRQEKKRKK” here?
A: not failed

Q: With “MKKIYIILLILFVILISLIGASILLVMSLSGENVDLFGGEKIAKVYLCNEIYFDYNQGDGIFPQQKKDARYYINLLDDLEKDDSVKGVLLVVNSPGGEVIASEKLARKVEELAKKKPVVVYVEGLDASGAYMVSAPADYIVAEKHSIVGSIGVRMDLMHYYGLMKKLGINVTTIKAGKYKDIGSPFRPMTKEEKEYLQKMINETYMDFVKWVAEHRHLSINYTLKIADGKIYSGEDAKKVGLVDEVGTEEDALKKLEQLANVSNPEIVEYGLEENKGLFGLTYYLGYGIGKGIGEVLYGMEKINGRVELLSLEHHHHHH” as the sequence, how does the protein production read?
A: failed

Q: With “MAETAPLRVQLIAKTDFLAPPDVPWTTDADGGPALVEFAGRACYQSWSKPNPKTATNAGYLRHIIDVGHFSVLEHASVSFYITGISRSCTHELIRHRHFSYSQLSQRYVPEKDSRVVVPPGMEDDADLRHILTEAADAARATYSELLAKLEAKFADQPNAILRRKQARQAARAVLPNATETRIVVTGNYRAWRHFIAMRASEHADVEIRRLAIECLRQLAAVAPAVFADFEVTTLADGTEVATSPLATEALEHHHHHH” as the sequence, how does the protein production read?
A: not failed

Q: Which protein production does the source give for “MHNKKWDLRIICAHAFTILIWGSAFPAIRMGLASYTPEHLTLLRLLIASFILLLFSFIYKLRIPDLKDIPAIFIFGALGFTFYHIALNYGEKTVNAGSASLIVSVTPIVTAILASIFLNEKMKLNGWIGGGISFIGIALISFSQGDAIQLNSGGFFILLAAISESLYFVFQTSYLKKYGFLPFTIYTILSSTVCMLIFFPGMYTEILAAPLEVNMSVIYLGLFPTVLPYIALAYIISHSGAAEATSSLYLTPVTACFVAWIWLGEVPTFVSIIGGGITILGILIVHIPVLRKEKHRNLANNQSV” here?
A: failed

Q: With “MDLKILSLATDKTTDKLQEFLQTLKDDDLASLLQNQAVKGRAVGTLLRAVLKGSPCSEEDGALRRYKIYSCCIQLVESGDLQQDVASEIIGLLMLEVHHFPGPLLVDLASDFVGAVREDRLVNGKSLELLPIILTALATKKEVLACGKGDLNGEEYKRQLIDTLCSVRWPQRYMIQLTSVFKDVCLTPEEMNLVVAKVLTMFSKLNLQEIPPLVYQLLVLSSKGSRRSVLDGIIAFFRELDKQHREEQSSDELSELITAPADELYHVEGTVILHIVFAIKLDCELGRELLKHLKVALRCF” as the sequence, how does the protein production read?
A: failed

Q: Which protein production does the source give for “MTEPCRIIGVLDNGAEGLTPQALAYLHAADLVIGAGRTLALFEAHLAEGAECRDLGGRLAQVPDWIAEARRNGKRVAVLATGDPLCHGIAGYLGNKLGREALEILPNVSTIQLACARLGLPWQDMAIGSVHSRDAGDWTPGAGPGHGLYGLLQKLRQADLMGVFTSPENGPDRIARMLRAEGLDEEFEMAIAERLLQADERIHGWLGIAEAAGQCFADPNVVLLRRRPCEREALFGLPDTRFRQRAPDKGLITKREVRAVSLARLALRPDSIVWDIGAGSGAVGLEAARLCPLGHVYAIEKNVEDFAIALSNRESLRVSNYTLVQAKAPRELDGWPDPHGVFIGGSGGELRELIQICLRRLRTGGWLVMNFATLENLAAAVDALKASGASWDVTQLQAARSRPILDMHRLQAENPVWIVCAQRENNE” here?
A: failed

Q: Which protein production does the source give for “MINDALKPYLEEKIESAKKTVPSFALEELKQKIISSPIQFGKSDIDDLVANLLKRYEQTKENSLIGKIDSIFKEISDMEKVMSGKAAEPAQPAEKPKKKAKLEAIGDDVVSIMVSLRWLEFLLDNYGPENTLDVLDYYESLGWISSTVKEQMMKYAKMTGVMNPAQEYKIKPSIQDHIINMLFIEKLRGEEINRDLIEALEREFRTIRKGVDELYGI” here?
A: failed

Q: With “MELLCHEVDPVRRAVRDRNLLRDDRVLQNLLTIEERYLPQCSYFKCVQKDIQPYMRRMVATWMLEVCEEQKCEEEVFPLAMNYLDRFLAGVPTPKSHLQLLGAVCMFLASKLKETSPLTAEKLCIYTDNSIKPQELLEWELVVLGKLKWNLAAVTPHDFIEHILRKLPQQREKLSLIRKHAQTFIALCATDFKFAMYPPSMIATGSVGAAICGLQQDEEVSSLTCDALTELLAKITNTDVDCLKACQEQIEAVLLNSLQQYRQDQRDGSKSEDELDQASTPTDVRDIDL” as the sequence, how does the protein production read?
A: not failed

Q: Which protein production does the source give for “MKFGRKCRIIVFISLVLFTFPVFSQDKNFTDKPSSSDKRVASEEFRRGVQAYYRGTFNEAILLFEKALSYLPDESLILDWLGKAYYSSGVEGAALTQWELAEAAGYGGMLLKNKIEILKESRSLTPYSSDNIKYVENSSFSSKNGTVELFRQPLSIAAVSDGSFWMTAYGSNELLHFNVNGIILDRTKGPIQGFDRPFDVIALSDGNLLVSEFAADRISLLDKNGSFIKSFGTRGRGNGEFIGPQFLAEDEYGNIYVCDFGNARIVVFSSAGEPLFTFGKKSGLFGGFTAPAGIAVVDGLVYIADAIKGAVYTFDTAGNFVQSLLPEGTLKQIESLREWNGNLVASAGNKAYLIDIAFSTVSELTSLGNVPTKITAAVPDVNGSLLLIDHKNQTVEITSRINELAGGLFVLIKKVYSDKFPEVLVEVSVQNRDGKQIVGLTQDNFIITEGNRPVADYSLTGSSYLNKTCDIAVIVERSPNSLKEKALIEAALKEIAEAMQGRGKISLISASSIPALEGKFSPADLITLPNRIKTPASSDWKLDLALRLAVGELINAEQKRAVLFLNFSDPNSDNFKQYNLNDLASYMKNNNIRFYPISLKKGAPASEMSYLAKKTGGKTSYIYAERGLKPLIDDIIEKPLGMYQLKYTSTMSTDFGRSFLPVEVEVQLLERSGRDEIGYFAPLE” here?
A: failed

Q: Which protein production does the source give for “MINYPNLPNSALEITEQPEVKEITNELLKQLQNALNSNSLFSEQVELSLKGIVRILEVLLSLDFFKNANEIDSSLRNSIEWLNNAGESLKTKMKEYEGFFSDFNTSMRTNEQEVSATLNANTENIKSEIKKLENQLIETTTRLLTSYQIFLNNARDSANNQITANKTESLEALNQAKTSANNEITANQTQALTNINEAKENANNQITENKTQAITNINEARESATTQITTNKQEVLNSITQEKNQATSEITEAKKSAFNELLETLKPKFSGLFAGAYYIRNVIIFKADGRRKSRI” here?
A: failed

Q: For “FAFVYEAQDVGSGREYALKRLLSNEEEKNRAIIQEVCFMKKLSGHPNIVQFCSAASIGKEESDTGQAEFLLLTELCKGQLVEFLKKMESRGPLSCDTVLKIFYQTCRAVQHMHRQKPPIIHRDLKVENLLLSNQGTIKLCDFGSATTISHYPDYSWSAQRRALVEEEITRNTTPMYRTPEIIDLYSNFPIGEKQDIWALGCILYLLCFRQHPFEDGAKLRIVNGKYSIPPHDTQYTVFHSLIRAMLQVNPEERLSIAEVVHQLQEIAAARNVNPKSPITELLEQNGGYGSAT”, which protein production is on record?
A: failed

Q: With “MSYIRLVTWNVDFDSPFNYERFTAIAEEVLGAKPGVVLFQEVSDLPFSSWQGEKEQSTITSARQHDSCYKVLLRRLEALYEPIVDLGLPSEQAYFVMAFVDRSKYRVHGYEYTEFENSSQGRGLLAIQLEPRDMCGDFKFRVLTSHLESGTACSEVRVQQMRQIAYEMLEGDTPAIFAGDTNFREKEKAGFEKEIAKAIGSEEMRLFDLFVEVGEPSHLRFTWDTRTNTNKVKELPPRFRPRARFDQVLFTRPFQANAMRLLGRERLGHAVFPSDHYGIYGELRF” as the sequence, how does the protein production read?
A: failed

Q: For “MKIATIKTGLASLAMLPGLVMAAPAVADKADNAFMMICTALVLFMTIPGIALFYGGLIRGKNVLSMLTQVTVTFALVCILWVVYGYSLAFGEGNNFFGNINWLMLKNIELTAVMGSIYQYIHVAFQGSFACITVGLIVGALAERIRFSAVLIFVVVWLTLSYIPIAHMVWGGGLLASHGALDFAGGTVVHINAAIAGLVGAYLIGKRVGFGKEAFKPHNLPMVFTGTAILYIGWFGFNAGSAGTANEIAALAFVNTVVATAAAILGWIFGEWALRGKPSLLGACSGAIAGLVGVTPACGYIGVGGALIIGVVAGLAGLWGVTMLKRLLRVDDPCDVFGVHGVCGIVGCIMTGIFAASSLGGVGFAEGVTMGHQLLVQLESIAITIVWSGVVAFIGYKLADLTVGLRVPEEQEREGLDVNSHGENAYNA”, which protein production is on record?
A: failed

Q: Which protein production does the source give for “MHRHVVTKVLPYTPDQLFELVGDVDAYPKFVPWITGMRTWNGRVDGAVSTVDAEAQVGFSFLREKFATRVRRDKDARSIDVSLLYGPFKRLNNGWRFMPEGDATRVEFVIEFAFKSALLDAMLAANVDRAAGKLIACFEARAQQLHGALEHHHHHH” here?
A: not failed

Q: With “MFKAPFSFDGRIRRIEYFLSGIIGGIVFGVAYSLGLATLFLGAAAGSAGGSLFGILIGIVAGIASIWFSLAQGVKRLHDLNKSGWLILICCVPIIGWVFSLYMLFADGTVGPNQYGEDPKNRMPYQPQPTSVNVTVNVSRETPAEAPAEEEKTEKAE” as the sequence, how does the protein production read?
A: failed

Q: For “MSLEGLSINFATVRQGGNFGAIVDACLAHGITAISPWREQVHGVGLAEAARIVEQNGLRLSGHCRGGFFPAIDADGRRRAIEDNKRAVDEAAAMKADCLVLVVGGLPAGSRDLKGARQMVEDGMAKLLPYARAAGVPLAIEPLHPFYAAERACFNTLKQSLDLCDRLGAGTGVAIDVYHVWWDPELEEQVARAGRNGQILAHHICDWLVPTTDPLNDRGMMGDGVIDLKAFRAMIEAAGFHGPQEVEIFSHRWQARPMDEVLATVVERFKTVC”, which protein production is on record?
A: failed

Q: With “MFRCQTKGWCKSLKPKVFLEFVEIKSLIASVLPFVLGSMYAYYNYHQLHLGYLLLFFIASSLFHMATNANDNYQDFLHAPRNDDNQEFLQETNVVGVNQISIGQARTITFGLAGISLIIGLWLVTQTGLPLLWMGLYSYAVGYFYAGGPKPISQGPFGEFFSGFTMGFMIFWIAVFINTYDTAAITWQSTLAVLIASGLAIFAISNIMLANNICDMDEDIALGRHTILYYLGKPVMLQVFAWSYVAGYACLVIAVLMGVLPKFSLLTLLSIIPVWKNTRVFLHKQVKRETFTISIKNATLICLSFIVFMGLGLIFN” as the sequence, how does the protein production read?
A: failed

Q: With “MHILVTGFAPFDNQNINPSWEAVTQLEDIIGTHTIDKLKLPTSFKKVDNIINKTLASNHYDVVLAIGQAGGRNAITPERVAINIDDARIPDNDDFQPIDQAIHLDGAPAYFSNLPVKAMTQSIINQGLPGALSNSAGTFVCNHTLYHLGYLQDKHYPHLRFGFIHVPYIPEQVIGKPDTPSMPLEKIVAGLTAAIEAISNDEDLHLALGTTE” as the sequence, how does the protein production read?
A: failed

Q: Which protein production does the source give for “MKKLFFIFLGSCTFALGTLGIFLPLLPTTGFYLLTAFFWMRSSDKLYNKFLASSYYQKYIQEAFFEKKITRKGKWKLFISMFLLFAIPCLIVRNTLMTTTLAIVYLAHVIGLSWYWRPKKKALELDQE” here?
A: failed
